The assay concerns the target CoV2_5P_FPKO1 (SARS-CoV-2) (UniProt P0DTC2). The experiment in a line: ELISA.

Experimental findings from patent publication US20250134988A1 are described below.

Substance CR3022 (antibody) yielded an EC50 (read off the curve) of 0.01 mg/L.
